Reference: the DeepSol protein solubility set

Assay: soluble on expression in E. coli; label from the status in PepcDB or PDB records

Sequence	soluble on expression in E. coli
MSREILTVVETVSNEKGVSREAIFEALEQALVAATKKKFYEGTNAEEAQLRVEIDRKTGDYRTFRQWTLVADEDHEMPACQDAISDVDASKWSIGDVRELEVESIEFGRIAAQIAKQVIVQKIREAERALIADAYESKVGELIYGEVKKQTKDGFIIDLGDNAEAYLAREEMIAKEILRPKQRMNAILYSVNREGRGAQLLLSRARPEMLMALMKKEIPEISEEIIEIKAAARQPGVRAKIAVKTNDHRIDPVGACIGMRGTRIQAVQQELNGERIDVVVWSDDPAQYIASALEPADVSGIVLDEDTRSADIIFATNDQLARAIGSQGQNVRLASELTGYKLDMMLEEEYRARQQNEAQQYLDMFVTRLDIEEDLAMALVEMGFTSLEEIAYVPPETFDEIELDQELVELLQSRAKEAALTDALKQQENVQEPSVELLAMAGMTQELAYALAARGVVTVDDLADQATDDISDIEGLSEEKAGQLIMKARESWFNLEHHHHHH	soluble
MNTLEKIQKNLENFSKSERKVAEVIMASPQTAIHSSIATLAKMADVSEPTVNRFCRRLDTKGFPDFKLHLAQSLANGTPYVNRNVEEDDGPDAYTHKIFESTMACLDVAKNSLDPMQVNRAVDLLTQAKRISFFGLGASSSVARDAQNKFIRFNIPITCFEDIVMQRMSCINCSDNDVIVLISHTGRTKSQVEIANLARENGATVIAITAKDSPLEKASSLAITLDIPEDTDVYMPMASRVVQMTVIDVLATGFTLRRGTGFRENLKRVKDALKDSRYDKLSQY	not soluble
GPGSMRALTFRSSLCAGRTAVGAMCFGRLWASSTSATEGSEKQNVTEDSETVSVAPVSPEAYAKLEKELSDAKERIAELKKEVLYRAADAENARRIGSEDVTKAKAYGITSFGKDMLDVVDTLERGLEAITKLPQAEVEGHKTLSSIHTGIKLSLKLLLNNLAKHGIEKLDVAVGAKFDPNFHDALLKVPPTAEAPPGHISTVLKTGYKIQDRVLRASQVGVASDD	not soluble
MRNLAIVDLGSNSARMAVSRLHANGTAQEIKRVKEDTRLSEGMGTAHVLQPAAIERTIKALLNFRRLYEKMPNTDVIGITTAAVRMAQNQTEFLNQVKQEVGLDLRVLSGDDEAYYDYLGVANSLVIHDCLILDTGGASCELILVKNGRKQQLISIPFGAVTLSEQFGLDDLVPSASLFRAQMFLRNRLADIWWLSEAVHFPIILLGGANRTLARINRRRQQKLKVEDIHGYRLKTETVFHTFLDLLSRSKKGRQEISGMEYDRADIIVGGMLPLVTLLQMLDSDRVIFSESGVREGIISEHLNQLEHHHHHH	not soluble
MKRIARLLLSCICLALLSGCLYPQERLKQNQIPYKDQVAAVQSAVDEYRKATGGLLPIKTRDMNTPMYLKYPVDFQKLVPRYMQEPPGNAYESGGVFQYMIIDAETNPTVKLLDLRLAERIRDLKLRLSMYTDKHKYPPFQDVVAPGVFTLDYKKLGYKEPPYVVSPFSGNNLPFVIDGNGEIYIDYRSDLYAALKKYPHHYKPGDDIRPILTDHSLFVPAYSLPYTIDAKTNEPIFFTK	not soluble
KRTMSISWPLAFSGAFQGSLTGMDNLRFICRIYNVDIDYVKAFTEEFSELGQYLYEPVKRYSSGMKARLAFALSLAVEFDCYLIDEVIAVGDSRFADKCKYELFEKRKDRSIILVSHSHSAMKQYCDNAMVLEKGHMYQFEDMDKAYEYYNSLP	not soluble
MEIKEFSACNLESLRKLYLDSRRDSFPWLKADSFRIEDFDRDSQGERIWLSEVLGNVVGFISIWEPDNFIHHLYVATEYQGQGVGSMLLNGAKMKYGNLSLKCMVQNQKALNFYSSQGFEIVSQVDDELGGYYYMSFSAQT	not soluble
MRKIVLPGDLLSTNPRAAGYGTYVEGGKVYAKIIGLFDQTETHVRVIPLKGRYTPSVGDVVIGIIREVAANGWAVDIYSPYQAFLPVSENPEMKPNKKPNEVLDIGDAIIAKVLNIDPKMKVTLTMKDRICRPIRFGRIVAINPARVPRVIGKKGSMIKLLKSELDVQIVVGQNGLIWVNGDRRKVSIAEEAIYLIEQEAHTEGLTDRVAEFIKRRKADVGIQHHHHHH	soluble
MKQLYGVIGNPIGHSLSPVMHNDAFEHLKMDAHYHAFLVKEEVLGEAVRGLKALGISGFNVTTPHKVAIMDYLDEIDPLAKQIGAVNTVVHKDGKLIGYNTDGIGFVRALQSISSEPLQEKRILLLGAGGASRAIYFSLADAGVKEIDVANRTVDKAKELIAACTATVHSVALSLEKATKEQGNYDIIIQTTTIGMHPRVEHTPLQISSLKKGTIVSDIIYNPFETKILCEAKEQGAIIQNGIDMFVYQGALAFEMWTGCVPNIERMKQLVIRNLEANIYVNRKTKKIFTCTSTSFNTNFSSRKRRSK	not soluble
MEHICGTSRIAGFRFSLYPMTDDFISVIKSALKKTDTSKVWTKTDHISTVLRGSIDHVFDAAKAIYLHAANSEQHIVMNGTFSIGCPGDTQGDTYLSKGDKRVNEDAVRGLKAEAPCQFALYPMNEPDYMGLIMEAVDIAKAQGTFVQGVHYASELDGDAHDVFSTLEAVFRMAEQQTNHITMTVNLSANSPSRKNRKQG	soluble
MVFLDPIHRIDVVTLSELSRLGFRRSGDFVYRPECHLCRQCLSCRVPVADFQMNSMQKKAWKRNQDLTMTVLPTRQASQIHYDLYERYINERHADGDMFPPSLDQFEKFLVHSCTDSFFLELWKDNRLISVSTCDLMDDGLSAVYTFFDPDEHRRSLGVYSILNQIEYVKTLGLEYVYLGYWVPHSAKMNYKSQYTPLELLLDGQWRRLNRSLSPEEINQLGNSLMTTLPSEWNNLIIKLEHHHHHH	not soluble
SLLEIDNQTPLESDFSLLEKIAKFLAPTQIIELVLVSDETMREINRDLRGCDYVTDVLSFPLEAIPHTPLGSVVINAPLAQENALKLGHRLEEEIALLFIHGVLHLLGYDHEKDKGEQRQKESELIKAFNLPLSLIERTQD	soluble
MNLIGKWIVGVGESVLNRMPLVRPIYKSIKQLFESVLKEHSNSFKKVGLIEFPSSGTWAMVFVSSEVKGELAHRFNEMGQQMVAVFLPPTPVPTAGFLLFVPKDKIVMLDMTPEDAAKLLISGGLVAPDFTPPKVIAPVLEHHHHHH	soluble
KGTLYVVGTPIGNLRDITLRALEILSAVDCIAAEHIQHAQKLLAGHALHTTSTRIMPLHQHNEGSAVEKIIELLGSGKSVALISDAGTPAISDPGALLVQQVLARSLPVVPIPGA	not soluble
MKIMILGIDIGGANTKITEIEGDNYKIHHIYFPMWKKKDELEDLLKNYNDNVDYVALVMTAELADCYKTKKEGVEDIIDKVEKAFNCPVYVFDVNGNFLTSEEAKKNYLDVSASNWNATAKFVAEFIKDSCILVDMGSTTTDIIPIKDKEVLAEKTDLDRLMNNQLVYVGTLRTPVSFLANKIEFRGKLTNLSSEYFAITADISLILNKITEEDYTCDTPDGAGKDFESCLTRLVRVLCADREMVKDDELIDFANKLYNKLLELIRENVDTIAKRYNLNDVVITGLGEEILKDALDEYNIISIKETYGKDVSLATPSFAVAKLLQKQLDKLEHHHHHH	not soluble
MGSDKIHHHHHHMDTQQLKVVSQQVQEQANFPPEFNRLLNELPDEVKHRIFPHLELVQLELGDVVCEAGSKVRYVYFPLNSIISLLYVMENGASAEIAVVGNDGMVGVALFMGGESTTSRAIVQSAGVAYRLFGQRLKDEFNRHGALLHLLLRYSQILLTQMAQTAVCNRHHSIEQQLCRWLLLSIDRLPDDRVMMTQELIANMLGVRREGVTDAAGKLQRIGIINYSRGNIEVLDRKLLEQTCCECYSVVKQESERLMPLKKFTKK	not soluble
VVLSTAFSQMFGIDYPIVSAPMDLIAGGELAAAVSGAGGLGLIGGGYGDRDWLARQFDLAAGAPVGCGFITWSLARQPQLLDLALQYEPVAVMLSFGDPAVFADAIKSAGTRLVCQIQNRTQAERALQVGADVLVAQGTEAGGHGHGPRSTLTLVPEIVDLVTARGTDIPVIAAGGIADGRGLAAALMLGAAGVLVGTRFYATVEALSTPQARDPLLAATGDDMCRTTIYDQLRRYPWPQGHTMSVLSNALTDQFEDTELDILHREEAMARYWRAVAARDYSIANVTAGQAAGLVNAVLPAADVITGMAQQAARTLTAMRAV	not soluble
MRWVSALEKRNFLTSFLHNHRLKHPDARFVLKYLLQHPHLLENVQFTETEQKQGRWLIISTAMAEEEGLVFYRRGQKSTSLAAIMGDLALHPNEPLYLTLHFPGKARNFSYLRLIDHQAFENVRRHERHEKMAKAAEQVLDEALKRHEVSILKMQIDQALDRKDMEWFQMLTEQLKKYEGQS	not soluble
MAAQRIRAANASGLPRCKSEGTLIDLSEGFSETSFNDVKVPSPSALLVDNPTPFGNAKEVIAIKDYCPNNFTTLKFSKGDHLYVLDTSGGEWWYAHNTTEMGYIPSSYVQPLNYRNSTLSDSGMIDNLPDSPEEVAKELDLLGGGWTDDQKESGRPYSNNPFWNGVRTNPFLNGNAQPSTDELNPKSTVDLLLFDTGTSSFTESSSATTNSTGNIFDELPATNGLQVEQPVKRDNPFFRSKRSYSLSELSVLQAKSDAPPTSSFFTGLKSPVPEQFQSREDFRTAWLNHRKLARSCHDLDLLGQSPGWGQTQAVETNIVCKLDSSGGSVQLPDTNISIHVPEGHVAPGETQQISMKALLDPPLDLNSDRSTSVSPVVEVKLSNLEVSTFIILEMKVSAEVKGDIFSKSTVVLQCLRSDSKEGPYVPIPLAYSYGDTIQVQLDNLEPCMYLAIVAQGPNILYPSTVWDFINKRVTVGLYGPKHIHPSFKTVVTIFGHDCAPKTLLVSEVTRQAPSPAPVALQLWGKHQFILSRPQDLRVCMFSNMTNYEVKANEQARVVRGFQMKLGKVSRLIFSVISQNPNELSDFTLRVQVKDDQDTILTQFCVQTPQPPPKSAIKPSGQRRFLKKNEVGKIILSPFVVTTKYPTFQDRPVSSLKFGKLLKTVVRQNKSHYLLEYKKGDVVALLSEERIRLKGQLWTKEWYIGYYQGKVGLVHTKNVLVVGKARPSLFSGPELSTSVLLEQILRPCKFLTYIYASVRTLLMENISSWRAFADALGYGNLPLTFFCRAELDSEPERVASVLEKLKEDCNNPDNKDRKSFQKELVMALLKMDCQGLVVRLIQDFVLLTTAVEVAQRWRELAEKLAKVSKQQMDAYESPHRDRNGVVDSEAMWKPAYDFLLTWSHQIGDSYRDVIQELHIGLDKMKNPITRRWKHLTGTLILVNSLDILRAAAFSPADHDDFVI	soluble
MGSDKIHHHHHHMSILNLFRKNKNKNNIDFNEKSNKSKQTSNNTMTPSQEYNSISTHNVEVKNEINKVLNVSYNDTTNLYELEKQAREKSDALYDIHTNSINKFNPQNNILETDTKPLTSIEKSFLKYIIGENIYEPYIATYWTYEYNINYSYLISKFFNMDYLKISNYIEDLTKLTVSELKEILKSNNIKSTGKKAELIERIEKEISCKDLSNFFNSSNKYYALTDKGKELLKDVRKSVTKNTDLEDQCLELIYIDKYEEAYDLICKYESSKNIQRGININWENHKITPMKIESYKAIKELDINLKDTLLDNIIKSSYILCDMLGNNSKTSILVKRLAGEKIDNIEINNAINSINDVIYNHSTITYNANDSINNKNLHYMDIVKNNKSIPFEVNNKNYNFKINENEIYFFNILKIKMYENELKNNFVFDRMSDGAFNVFDTSDNFIGKVKLQGRKKWIMYMKNEFGSEHIYGELIHLIDGIDAWIKYSKEYLK	not soluble
MMSNRSDFIVPDEAAVKRAASVNFHLEPLRPWLDDPQITEVCVNRPGEVFCERASAWEYYAVPNLDYEHLISLGTATARFVDQDISDSRPVLSAILPMGERIQIVRPPACEHGTISVTIRKPSFTRRTLEDYAQQGFFKHVRPMSKSLTPFEQELLALKEAGDYMSFLRRAVQLERVIVVAGETGSGKTTLMKALMQEIPFDQRLITIEDVPELFLPDHPNHVHLFYPSEAKEEENAPVTAATLLRSCLRMKPTRILLAELRGGEAYDFINVAASGHGGSITSCHAGSCELTFERLALMVLQNRQGRQLPYEIIRRLLYLVVDVVVHVHNGVHDGTGRHISEVWYDPNTKRALSLQHSEKT	soluble
